Results from publication PMC7210945, “The pivot point arginines identified in the β-pinwheel structure of C-terminal domain from Salmonella Typhi DNA Gyrase A subunit”.

Tests used:
[1] = molecular target: StGyrA-CTD R667A R667A (Salmonella enterica serovar Typhi CT18) (UniProt A0A1U7FVV6); assay: fluorescence binding
[2] = molecular target: StGyrA-CTD R716A R716A (Salmonella enterica serovar Typhi CT18) (UniProt A0A1U7FVV6); assay: fluorescence binding
[3] = molecular target: StGyrA-CTD R817A R817A (Salmonella enterica serovar Typhi CT18) (UniProt A0A1U7FVV6); assay: fluorescence binding
[4] = molecular target: StGyrA-CTD R766A R766A (Salmonella enterica serovar Typhi CT18) (UniProt A0A1U7FVV6); assay: fluorescence binding
[5] = molecular target: StGyrA-CTD R712A R712A (Salmonella enterica serovar Typhi CT18) (UniProt A0A1U7FVV6); assay: fluorescence binding
[6] = molecular target: Salmonella enterica serovar Typhi DNA Gyrase A C-terminal domain (StGyrA-CTD) (Salmonella enterica serovar Typhi (CT18 strain)); assay: SEC
StGyrA-CTD wild type = StGyrA-CTD wild type (Salmonella enterica serovar Typhi CT18, UniProt A0A1U7FVV6 530-840); assay: fluorescence binding; 1 mM Mg2+; conditions: protein: recombinant; tags: C-terminal 6xHis (pET-28a); chain copies: 2; blunt
StGyrA-CTD D692A = StGyrA-CTD D692A (Salmonella enterica serovar Typhi CT18, UniProt A0A1U7FVV6 530-840, D692A); assay: fluorescence binding; 1 mM Mg2+; conditions: protein: recombinant; tags: C-terminal 6xHis; blunt
StGyrA-CTD R612A = StGyrA-CTD R612A (Salmonella enterica serovar Typhi CT18, UniProt A0A1U7FVV6 530-840, R612A); assay: fluorescence binding; 1 mM Mg2+; text gives 220-250 nM for other mutants; conditions: protein: recombinant; tags: C-terminal 6xHis; blunt

With “TAAAGTCTAGAGACACGCATAGTCAATGACGGAGTTA (double strand) [FAM-37 bp DNA]” the Kd [1] was 263 nM, the Kd [2] was 277 nM and the Kd [3] was 204 nM. For the same molecule, the Kd [4] was 221 nM and the Kd [5] was 231 nM.

Work on “Salmonella enterica serovar Typhi DNA Gyrase A C-terminal domain (StGyrA-CTD) (domain or fragment)” yielded a stoichiometry N [6] of 2.

B1: FAM-37 bp DNA (dsDNA)
DNA 1: TAAAGTCTAGAGACACGCATAGTCAATGACGGAGTTA
DNA 2: TAACTCCGTCATTGACTATGCGTGTCTCTAGACTTTA
Molecule B1 has a Kd (StGyrA-CTD wild type) of 122 nM, a Kd (StGyrA-CTD D692A) of 129 nM and a Kd (StGyrA-CTD R612A) of 135 nM.
